1 substance from PMC3128523 can be followed below.

This assay concerns the target GST-tagged constitutively active Rab1A Q67L (Dictyostelium) (UniProt P34139). The assay can be described thus: pull-down.
Sequence of UniProt P34139 (P34139 whole entry Q67L): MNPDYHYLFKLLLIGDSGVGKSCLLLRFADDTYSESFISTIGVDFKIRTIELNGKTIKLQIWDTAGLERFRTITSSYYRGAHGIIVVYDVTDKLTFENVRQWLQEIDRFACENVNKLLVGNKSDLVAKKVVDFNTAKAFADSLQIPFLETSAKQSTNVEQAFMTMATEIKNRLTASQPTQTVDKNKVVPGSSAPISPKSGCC

For T7-tagged Roco2 (wild type) (enzyme), the fold of Roco2 pulled down against wild-type Rab1A was > 5 fold.
